The text below walks through data of patent US20250136720A1 (Boehringer Ingelheim, published 2025).

Residue numbers refer to the chain shown, from its start. Names and notes keep the numbering of the source.

B1: CD137 #A27 (antibody, human IgG1, V domains shown)
VH: QVQLQQSGAELTRPGASVKLSCKASGYTFTNYWIQWIKQRPGQGLEWIGTIYPENGDTRYTQKFKGKATLTADKSSSTAYMQLSSLASEDSAVYYCARGLLEGAHYWGQGTTLTVSS
VL: DILLTQSPAILSVSPGERVSFSCRASQSIGASIHWYQQRTNGSPRLLIKFSSESISGIPSRFSGSGSGTDFTLTINSVESEDIADYYCQQTNSWPTAFGGGTKLEMK
notes: human IgG1 KO (L234A/L235A)/kappa chimeric IgG
B2: CD137 #A25 (antibody, human IgG1, V domains shown)
VH: DVQLVESGGGLVQPGGSRKLSCAASGFSFSSFGMHWVRQAPEKGLEWVAYISSGSSTIYYADTVKGRFTISRDNPKNTLFLQMTSLRSEDTAMYYCVRDWTDYWGQGTTLTVST
VL: QIVLTQSPAIMSASLGEEITLTCSATSSVSYMHWSQQKSGTSPKLLIYTTSNLASGVPSRFSGSGSGTFYSLTISSVEAEDAADYYCHQWTTYPWTFGGGTKLEIK
notes: as for B1
B3: CD137 #B4 (antibody, human IgG1, V domains shown)
VH: DVQLQESGPGLVKPSQSLSLTCTVTGYSITSDYAWNWIRQFPGNRLEWMGYISYSGSTSYNPSLKSRISITRDTSKNQFFLQLNSVTTEDTATYFCARWGYVLDYWGQGTSVTVSS
VL: DIVMTQSHKFMSTSEGDRVSITCKASQDVSTAVAWYQQKPGQSPKLLIYWASTRHTGVPDRFRGSGSGTDYTLTISSVQAEDLALYFCQQHYFTPYTFGGGTKLEIK
notes: as for B1
B4: CD137 #B7 (antibody, human IgG1, V domains shown)
VH: EVQLQESGPSLVKPSQTLSLTCSVTGDSITSGYWNWIRKFPGNKLEFMGYITYSGSTYYNPSLKSRISITRDTSRNQFYLQVNSVTTEDTATYFCTRYYYYGSTYYAMDYWGQGTSVTVSS
VL: NIVLTQSPASLAVSLGQRATISCRVSESVDSYGNSFMHWFQQKPGQSPKLLIYLASNLESGVPARFSGSGSRTDFTLTIDPVEADDAATYYCQQNIEDPPTFGGGTKLEIK
notes: as for B1
B5: CD137 #B27 (antibody, human IgG1, V domains shown)
VH: QVQLQQSGAELVRPGASVKISCKAFGYTFTNHHINWVKQRPGQGLDWIGYINPYNDYSGYNQKFKGRATLTVDKSSNTAYMELSSLTSEDSAVYYCATPGTWEGYYFDYWGQGTTLTVSS
VL: DVVMTQTPLSLPVSLGDQASISCRSSQSLVHSNGNTYLEWYLQKPGQSPKVLIYMVSNRFSGVPDRFSGSGSGTDFTLKISRVEAEDLGVYYCFQGSHIPLTFGAGTKLELK
notes: as for B1
B6: CD137 #A39 (antibody, human IgG1, V domains shown)
VH: QVQLQQSGAELMKPGSSVKLSCKAPGYKFTDYWIEWVKQRPGHGLDWIGNILPGTINTNSNENFKGKATFTADTSSNTAYMQLSSLTSEDSAVYYCARRSLEYYFDYWGQGTTLTVSS
VL: DIVVTQSPASLAVSLGQRATISCRASQSVSTSRYSYMHWYQQKPGQPPRLLINYASNLESGVPARFSGSGSGTDFTLNIHPVEEEDTATYYCQHTWEIPWTFGGGTKLEIK
notes: as for B1
B7: CD137 #A49 (antibody, human IgG1, V domains shown)
VH: QVQLQESGPGLVKPSETLSLTCTVSGGSISSYYWSWIRQPPGKGLEWIGYIYYSGSTNYNPSLKSRVTISVDTSKNQFSLKLSSVTAADTAVYYCARDQSGGGSFQHWGQGTLVTVSS
VL: EIVMTQSPLSLPVTPGEPASISCRSSQSLLYSNGYNHLDWYLQKPGQSPQLLIYLGSNRASGVPDRFSGSGSGTDFTLKISRVEAEDVGVYYCMQALQTPPTFGQGTKLEIK
notes: human IgG1 KO (L234A/L235A)/kappa IgG; also called CD137 #7; A49 Parent
B8: CD137 #A26 (antibody, human IgG1, V domains shown)
VH: EVQLQESGPSLVKPSQTLSLTCSVTGDSITSGYWNWNRKFPGNKFEYMGYISYSDSAYYNPSLKSRISITRDTSKNQYYLQLNSVTTEDTATYYCTRWGIPFAFWGQGTLVTVSA
VL: DIKMTQSPSSMYASLGERVTITCKASQDIDSYLYWFQQKPGKSPETLIYHANRLVDGVPSRFSGSGSGQDYSLTISSLEYEDMGIYYCLQYDEFPYTFGGGTKLEIK
notes: as for B1
B9: CD137 #A16 (antibody, human IgG1, V domains shown)
VH: QVQLQQPGAELVKPGASVKLSCKASGYTFTNFWINWVKQRPGQALEWIGNIYPGNDNTNYNGNFKTKATLTVDRSSSTAYMHLSSLTSKDSAVYYCARGQLGLDYWGQGTTLTVSS
VL: DILLTQSPAILSVSPGERVSFSCRASQNIGTTIHWYHQRTNGSPRLLIKFASESISGIPSRFSGSGSGTDFTLSINSVESEDFADYYCQQSNSWPFTFGSGTKLEIK
notes: as for B1
B10: CD137 #B2 (antibody, human IgG1, V domains shown)
VH: B9 VH with A44G, D56T, N57G, G62E, N63R, R74I, H82R, K89E
VL: B9 VL with N28I, H34Q, H37Q, F50Y, I55L, S77N, F83I, N92H
notes: as for B1
B11: CD137 #B13 (antibody, human IgG1, V domains shown)
VH: B9 VH
VL: B9 VL
notes: as for B1
B12: CD137 #B1 (antibody, human IgG1, V domains shown)
VH: B9 VH
VL: B9 VL
notes: as for B1
B13: CD137 #A17 (antibody, human IgG1, V domains shown)
VH: B9 VH with T66S
VL: B9 VL with T32A
notes: as for B1
B14: CD137 #B20 (antibody, human IgG1, V domains shown)
VH: EVKLVESEGGLVQPGSSMKLSCTASGFTFSDFYMAWVRQVPEKGLEWVANINYDGSSTYYLDSLKSRFIISRDNARNILYLQMSSLKSEDTATYYCAREGDEGWYFDVWGAGTTVTVSS
VL: DIVMTQSHKFMSTSVGDRVSITCKASQDVSTAVAWYQQKPGQSPKLLIYSASYRYTGVPDRFTGSGSGTDFTFTISSVQAEDLAVYYCQQHYSNPWTFGGGTKLEIK
notes: as for B1
B15: CD137 #B21 (antibody, human IgG1, V domains shown)
VH: B14 VH
VL: B14 VL
notes: human IgG1 KO (L234A/L235A)/kappa chimeric IgG; also called CD137 #1; B21 parent
B16: CD137 #A42 (antibody, V domains shown)
VH: QVQLQQSGPGLVKPSQTLSLTCAISGDSVSSNSAAWNWIRQSPSRGLEWLGRTYYRSNWYNDYAVSVESRITIKPDTSKNQFSLQLNSVTPEDTAVYYCARMDSGTYLDAFDIWGQGTMVTVSS
VL: EIVMTQSPATLSVSPGERATLSCRASQSVGRNLAWYQQKPGQTPRLLIYGASTRATGIPAIFSGSGSGTEFTLTISSLQSEDFAVYYCQQYNYWPPFTFAQGTKLEIK
notes: as for B1
B17: CD137 #A3 (antibody, human IgG1, V domains shown)
VH: DVQLQESGPGLVKPSQSLSLTCTVTGYSITSDYGWNWIRQFPGNKVEWMGYISYSGSTSYNPSLKSRISITRDTSKNQFFLQLKSVTTEDTATYYCARSDPYYGISWFAYWGQGPLVTVSA
VL: DIQMTQTTSSLSASLGDRVTISCRASQDISNFLNWYQQKPDGTVKLLIYYTSRLHSGVPSRFSGSGSGTDYSLTISNLEQEDIATYFCQQSHTLPWTFGGGTKLEIK
notes: as for B1
B18: FAP.65.F1 (Fc fusion)
VH: DVQLVESGGGLVHPGGSLRLSCAASTFTFANYIMSWVRQAPGKGLEWVSGITGSSTNTYYTDSVKGRFTISRDNSKNTLYLEMNSLRAEDTAVYYCAKHQLYPYYAMDVWGQGTTVTVSS
VL: EIVLTQSPGSLSLSPGERATLSCRASQPIDSYLAWYQQKPGQAPRLLIYGASTRATDIPDRFSGSGSGTEFTLTISSLQSEDFAVYYCQQYYDWPPVTFGGGTKVEIK
notes: Tested as scFv-Fc; orientation, linker and Fc of this construct not specified
B19: FAP.84.A11 (Fc fusion)
VH: DVQLVESGGGLVQPGGSLRLSCAASGFSMSNFAMTWVRQAPGEGLEWVSGIRGSGTTYYADSVKGRFTVSRDNSKNTLYLQMNSLRAEDTAIYYCAKTWGTEYFDYWGLGTLVTVSS
VL: B18 VL with S10T, D30N, S31N, Y49F, G50S, T53N, D57G, Q79E, S80P, V97Y
notes: as for B18
B20: FAP.63.G3 (Fc fusion)
VH: DVQLVESGGGVVRPGESLTLSCAASGFTFSNYDMGWVRQAPGEGLEWVSGIRGRGGSTYYADSVKGRFTISRDSSKNTLYLQMNSLRAEDTAVYYCAKENNRHSFFEYWGLGTLVTVSS
VL: EIVLTQSPGTLSLSPGERATLSCRASQSVGHYLAWYQQKPGQAPRLLIYDASNRAIDIPDRFSGSGSGTEFTLTISRLEPEDFAVYYCQQYYNNWPPLTFGGGTKVEIK
notes: Tested as scFv-Fc; orientation, linker and Fc not specified; also called FAP.63.C3; FAP 63.C3
B21: FAP.63.H3 (Fc fusion)
VH: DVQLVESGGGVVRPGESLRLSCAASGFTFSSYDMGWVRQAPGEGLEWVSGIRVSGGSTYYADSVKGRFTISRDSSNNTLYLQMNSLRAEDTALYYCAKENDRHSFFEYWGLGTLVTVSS
VL: B20 VL with H31Y, N53D, I56T, D57A
notes: as for B18
B22: FAP.63.D7 (Fc fusion)
VH: DVQLVESGGGVVRPGESLRLSCAASGFTFSSYAMSWVRQTPGEGLEWVSFISSGGAYTHYTDSVKGRFTISRDNSKNTLYLQMNSLRAEDTAVYYCAKEKEIWNAFFDYWGLGTLVTVSS
VL: EIVLTQSPATLNLSPGDRATLTCRASQTVGSKLAWYQQTSGQAPRLLIYDASSRATGIPDRFSGSGSGTEFTLTISSLEPEDFAVYVCQQYYDWPPLTFGGGTKVEIK
notes: as for B18

The target in one experiment is T1, Human CD137 on Jurkat cells (human, UniProt Q07011 24-255).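 Further: binding of antibody-containing supernatants to NF-kB-Luc2/4-1BB Jurkat cells, detected by flow cytometry with a PE-labelled anti-human IgG-Fc secondary antibody.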
T1 construct: whole, on cells; also called full-length human CD137-expressing Jurkat cell line; NF-kB-Luc2/4-1BB Jurkat
Put plainly: flow cytometry, Jurkat cells. (Flow cytometry measures light scatter and fluorescence of single cells or particles in a stream.)
Description: Briefly, HTP supernatants containing recombinant IgG1 (KO) antibodies, were assayed by flow cytometry for binding to the NF-kB-Luc2/4-1BB Jurkat cell line. […] The cells were washed x3 with staining buffer. A Goat F(ab′)2 anti-human IgG-Fc PE secondary antibody was added to the cells and the plate was incubated for 30 min at 4° C. The cells were wash ×3 with staining buffer.
For B1, the binding result is recorded as “binds”.
On the same count and under the same terms, as for B2, the entry is “binds”.
As for B3, the binding result was “binds”.
The same measure, in the same setting: as for B4, the entry is “binds”.
Still for that read-out and setting: as for B5, the entry is “binds”.
On to B6, for which the binding result is given as “binds”.
For B7, the binding result is recorded as “binds”.
B8: the binding result was “binds”.
Take B9: the binding result is given as “binds”.
The same measure, in the same setting: to B10 belongs “binds”; to B11, “binds”; to B12, “binds”.
The same measure, in the same setting: as for B13, the entry is “binds”; as for B14, “binds”; as for B15, “binds”.
Take B16: the binding result is “binds”.
In the case of B17, the binding result was “binds”.

For a further experiment, the target named is T2, Murine Fibroblast Activation Protein (FAP) on B16 cells (mouse, UniProt P97321 1-761).
T2 construct: B16 cells transduced with murine FAP cDNA; also called B16-FAP
T2 sequence (P97321 other isoform, or with tags, fused parts or gaps): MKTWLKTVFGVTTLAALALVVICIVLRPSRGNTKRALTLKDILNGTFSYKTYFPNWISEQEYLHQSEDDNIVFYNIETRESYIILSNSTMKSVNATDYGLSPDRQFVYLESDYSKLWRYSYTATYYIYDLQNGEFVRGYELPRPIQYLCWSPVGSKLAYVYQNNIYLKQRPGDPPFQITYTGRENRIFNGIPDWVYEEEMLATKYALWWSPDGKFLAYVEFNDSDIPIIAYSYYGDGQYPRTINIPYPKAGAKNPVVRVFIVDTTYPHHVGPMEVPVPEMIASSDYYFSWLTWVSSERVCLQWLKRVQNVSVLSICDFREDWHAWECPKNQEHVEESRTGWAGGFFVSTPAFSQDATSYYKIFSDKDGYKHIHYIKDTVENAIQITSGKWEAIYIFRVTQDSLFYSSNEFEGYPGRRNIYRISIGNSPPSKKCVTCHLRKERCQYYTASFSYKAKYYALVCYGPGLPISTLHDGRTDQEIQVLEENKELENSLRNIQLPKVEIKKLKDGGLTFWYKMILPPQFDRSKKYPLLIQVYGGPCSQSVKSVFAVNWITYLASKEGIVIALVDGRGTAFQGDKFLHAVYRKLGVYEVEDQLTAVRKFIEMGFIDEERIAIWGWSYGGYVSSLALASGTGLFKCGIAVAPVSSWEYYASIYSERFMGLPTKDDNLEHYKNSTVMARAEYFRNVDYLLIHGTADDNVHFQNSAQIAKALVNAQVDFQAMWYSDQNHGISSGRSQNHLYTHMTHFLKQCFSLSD
Description: flow cytometry, scFv-Fc on B16-FAP cells.
The molecule B18 showed an MFI of 1840 MFI.
In the case of B19, the MFI was 1410 MFI.
The molecule B20 had an MFI of 1410 MFI.
Regarding B21, the MFI was 2830 MFI.
Molecule B22 displayed an MFI of 3360 MFI.

Another experiment addresses T3, Human Fibroblast Activation Protein (FAP) on HT1080 cells (human, UniProt Q12884 1-760).
T3 construct: HT1080 cells transduced with human FAP cDNA; also called HT1080-FAP; FAP+ HT1080
Description: flow cytometry, scFv-Fc on HT1080-FAP cells.
For the molecule B18, the MFI was determined as 35600 MFI.
Still for that read-out and setting: as for B19, the figure is 27300 MFI; as for B20, 72800 MFI.
B21 gave an MFI of 75000 MFI.
B22 came in with an MFI of 49100 MFI.
